Assay results published in patent US20230052646A1 (JJP BIOLOGICS SP Z O O, published 2023).
Blank lines part the entries; values can stand above or below the binder they belong to.

Columns and labels:
[1] = target: T1, membrane-bound full-length human HVEM on stable HVEM-transfected HEK293F cells (clone no. 128) (human, UniProt Q92956 39-283); assay: FACS, Ab 10 µg/mL then biotinylated BTLA on HVEM-HEK293F
T1 construct: The same cDNA was also expressed on Sf9 insect cells; also called TNFRSF14; CD270
T1 sequence: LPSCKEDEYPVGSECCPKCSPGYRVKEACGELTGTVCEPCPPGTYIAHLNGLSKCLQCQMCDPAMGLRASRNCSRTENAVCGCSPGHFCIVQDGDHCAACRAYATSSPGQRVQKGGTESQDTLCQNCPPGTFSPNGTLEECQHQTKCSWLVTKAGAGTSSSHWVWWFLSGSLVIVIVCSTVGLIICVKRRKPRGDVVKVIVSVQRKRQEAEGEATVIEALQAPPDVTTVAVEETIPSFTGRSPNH
Protocol: (§1) Generation of human ‘full-length’ HVEM-transfected HEK293F cells (clone no. 128) is described in Example 1a. Binding of soluble human BTLA, of soluble human CD160, of soluble human LIGHT, and of soluble human TNFβ on surface human HVEM-transfected cells was analysed by FACS analysis. To this end, stable human full-length HVEM-transfected HEK293F cells were put at 10×10⁶ cells/mL in ice-chilled phosphate-buffered saline containing 0.1% BSA (Sigma)/0.05% NaN₃ (PBS/BSA/NaN₃) supplemented with 50 μg/mL human IgGs (blocking possible Fcγ receptors; Sigma) for 10 minutes at 4° C. Then, 10 μL/tube (i.e., 0.1×10⁶ cells) of these cells were incubated with or without 100 μL purified chimeric mouse/human anti-HVEM antibody at 10 μg/mL/tube or a human IgG4/κ (Sigma) negative isotype control at 10 μg/mL/tube for 30 minutes at 4° C. After this (i.e., without washing), cells were subsequently incubated with 1 μg/mL soluble biotinylated human BTLA (Sino Biological Inc), with 10 μg/mL soluble his-tagged human CD160 (Sino Biological Inc), with 1 μg/mL soluble his-tagged human LIGHT (Sino Biological Inc), or with 0.1 μg/mL soluble biotinylated human TNFβ (Sino Biological Inc) in PBS/BSA/NaN₃ for 30 minutes at 4° C. After extensive washing in PBS/BSA/NaN₃, cells were incubated with 1:200 diluted PE-conjugated streptavidin (detection BTLA and TNFβ; Jackson ImmunoResearch) or with biotinylated mouse anti-his antibody (detection CD160 and LIGHT; R&D Systems) at 10 μg/mL for 30 minutes at 4° C. After extensive washing in PBS/BSA/NaN₃, cells were incubated with 1:200 diluted PE-conjugated streptavidin (detection CD160 and LIGHT; Jackson ImmunoResearch) for 30 minutes at 4° C. After extensive washing in PBS/BSA/NaN₃, cells were fixed in 4% formaldehyde in PBS/BSA/NaN₃ for 30 minutes at 4° C. Binding of ligands BTLA, CD160, LIGHT and TNFβ on membrane human HVEM was measured using a flow cytometer (model FACSCalibur; BD Biosciences). For comparison, purified BTLA/HVEM blocking mouse anti-human HVEM antibody counterparts no. 36H12, 45H6, 48H6, 11H7, and 49G4 at 10 μg/mL/tube and a mouse IgG1 (BD Biosciences) negative isotype control at 10 μg/mL/tube were run in parallel.

[2] = target: T2, membrane-bound 'CRD1 truncated' human HVEM on transiently transfected HEK293F cells (human, UniProt Q92956 76-283); assay: FACS, undiluted hybridoma supernatant, CRD1 truncated HVEM on HEK293F
T2 construct: aa 1-19 are a mouse Ig signal peptide and are left out; Starts with CRD2; also called human HVEM deleted for CRD1; CRD1 truncated HVEM
T2 sequence: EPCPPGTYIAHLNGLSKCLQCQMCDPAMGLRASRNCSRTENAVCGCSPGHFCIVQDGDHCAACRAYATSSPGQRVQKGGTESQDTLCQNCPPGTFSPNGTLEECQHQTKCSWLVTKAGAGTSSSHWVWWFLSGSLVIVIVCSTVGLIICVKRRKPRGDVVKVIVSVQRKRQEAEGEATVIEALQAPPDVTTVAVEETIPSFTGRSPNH
Protocol: Generation of human ‘full-length’ HVEM-transfected HEK293F cells (clone no. 128) is described in Example 1a. […] After 72 hours, surface human HVEM expression on transfected cells was analysed by FACS analysis. To this end, stable human full-length HVEM-transfected HEK293F cells and transient human ‘CRD1 truncated’ HVEM-transfected HEK293F cells were put at 10×10⁶ cells/mL in ice-chilled phosphate-buffered saline containing 0.1% BSA (Sigma)/0.05% NaN₃ (PBS/BSA/NaN₃) supplemented with 50 μg/mL human IgGs (blocking of possible Fcγ receptors; Sigma) for 10 minutes at 4° C. Then, 10 μL/tube (i.e., 0.1×10⁶ cells) of these cells were incubated with 100 μL undiluted hybridoma supernatant/tube for 30 minutes at 4° C. Phycoerythrin (PE)-conjugated mouse anti-human HVEM antibody (clone eBioHVEM-122; eBioscience) at 1:20 was run as a positive control antibody. After extensive washing in PBS/BSA/NaN₃, cells were subsequently incubated with 1:200 diluted PE-conjugated goat anti-mouse IgG Fcγ-specific antibodies (Jackson ImmunoResearch) for 30 minutes at 4° C. After extensive washing in PBS/BSA/NaN₃, cells were fixed in 2% formaldehyde in PBS/BSA/NaN₃ for 30 minutes at 4° C. Binding of antibodies was measured using a flow cytometer (model FACSCalibur; BD Biosciences).

[3] = target: T1, membrane-bound full-length human HVEM …; assay: FACS, Ab 10 µg/mL then biotinylated TNFβ on HVEM-HEK293F
Protocol: as §1

[4] = target: T1, membrane-bound full-length human HVEM …; assay: FACS titration on HVEM-HEK293F, half-maximum binding
Protocol: In order to determine the relative binding affinity of purified BTLA/HVEM blocking chimeric mouse/human anti-human HVEM antibodies no. 36H12, 45H6, 48H6, 11H7, and 49G4 for human HVEM, FACS analysis was used.
To this end, stable human full-length HVEM-transfected HEK293F cells (clone no. 128; see Example 1(a) above) were put at 10×10⁶ cells/mL in ice-chilled PBS containing 0.1% BSA (Sigma)/0.05% NaN₃ (PBS/BSA/NaN₃) supplemented with 50 μg/mL human IgGs (blocking possible Fcγ receptors; Sigma) for 10 minutes at 4° C. Then, 10 μL/tube (i.e., 0.1×10⁶ cells) of these cells were incubated with or without 100 μL titrated (in PBS/BSA/NaN₃) purified BTLA/HVEM blocking chimeric mouse/human anti-human HVEM antibody/tube for 30 minutes at 4° C. After extensive washing in PBS/BSA/NaN₃, cells were subsequently incubated with 1:200 diluted PE-conjugated goat anti-human IgG Fcγ-specific antibodies (Jackson ImmunoResearch) for 30 minutes at 4° C. After extensive washing in PBS/BSA/NaN₃, cells were fixed in 4% formaldehyde in PBS/BSA/NaN₃ for 30 minutes at 4° C. Binding (geo-mean fluorescence intensity) of chimeric mouse/human anti-human HVEM antibodies no. 36H12, 45H6, 48H6, 11H7, and 49G4 on membrane human HVEM was measured using a flow cytometer (FACSCalibur; BD Biosciences). For comparison, purified BTLA/HVEM blocking mouse anti-human HVEM antibody counterparts no. 36H12, 45H6, 48H6, 11H7, and 49G4 were run in parallel, and their binding was monitored as described in Example 2 (a).

[5] = target: T1, membrane-bound full-length human HVEM …; assay: FACS, biotinylated TNFβ pre-bound, then Ab 20 µg/mL
Protocol: (§2) Generation of human ‘full-length’ HVEM-transfected HEK293F cells (clone no. 128) is described in Example 1a. Displacement of pre-bound soluble human BTLA, soluble human CD160, soluble human LIGHT, and soluble human TNFβ from surface human HVEM-transfected cells was analysed by FACS analysis. To this end, stable human full-length HVEM-transfected HEK293F cells were put at 10×10⁶ cells/mL in ice-chilled phosphate-buffered saline containing 0.1% BSA (Sigma)/0.05% NaN₃ (PBS/BSA/NaN₃) supplemented with 50 μg/mL human IgGs (blocking possible Fcγ receptors; Sigma) for 10 minutes at 4° C. Then, 10 μL/tube (i.e., 0.1×10⁶ cells) of these cells were incubated without or with 50 μL soluble biotinylated human BTLA-human Fcγ fusion protein (Sino Biological Inc) at 2 μg/mL/tube, with soluble his-tagged human CD160 (Sino Biological Inc) at 20 μg/mL/tube, with soluble his-tagged human LIGHT (Sino Biological Inc) at 2 μg/mL/tube, or with soluble biotinylated human TNFβ (Sino Biological Inc) at 0.2 μg/mL/tube in PBS/BSA/NaN₃ for 30 minutes at 4° C. After this (i.e., without washing), cells were subsequently incubated with 50 μL purified chimeric mouse/human anti-HVEM antibody at 20 μg/mL/tube or a human IgG4/κ (Sigma) negative isotype control at 20 μg/mL/tube for 30 minutes at 4° C. […] After extensive washing in PBS/BSA/NaN₃, cells were incubated with 1:200 diluted PE-conjugated streptavidin (detection CD160 and LIGHT; Jackson ImmunoResearch) for 30 minutes at 4° C. After extensive washing in PBS/BSA/NaN₃, cells were fixed in 4% formaldehyde in PBS/BSA/NaN₃ for 30 minutes at 4° C. Residual binding of ligands BTLA, CD160, LIGHT and TNFβ on membrane human HVEM was measured using a flow cytometer (model FACSCalibur; BD Biosciences).

[6] = target: T1, membrane-bound full-length human HVEM …; assay: FACS, biotinylated BTLA-Fc pre-bound, then Ab 20 µg/mL
Protocol: as §2

% blocking of ligand binding [1]: > 95%
binding result [2]: no binding
% blocking of ligand binding [3]: > 85%
EC50 [4]: 0.266 µg/mL
B1: mouse anti-human HVEM antibody no. 49G4 (antibody, mouse IgG1, V domains shown)
VH: EVQLQQSGAELVKPGASVKLSCRASGFNIKDTYMHWVKQRPEQGLEWIGRIDPARGNTKYDPKFQGKATITADTSSNTAYLQLSSLTSEDTAVYYCASAMDYWGQGTSVTVSS
VL: DVLMTQTPLSLPVSLGDQASISCRSSQSIVHSNGNTYLEWFLQKPGQSPKLLIYKVSNRFSGVPDRFSGSGSGTDFTLKISRVEAEDLGVYYCFQGSHVPLTFGAGTKLELK
notes: mouse IgG1/kappa; also called 49G4 (mouse)

% blocking of ligand binding [1]: > 95%
binding result [2]: no binding
EC50 [4]: 0.26 µg/mL
B2: mouse anti-human HVEM antibody no. 45H6 (antibody, mouse IgG1, V domains shown)
VH: DVQLVESGGGLVQPGGSRKLSCAASGFTFSSFGMHWVRQAPEKGLEWVAYISSGNSNIYYVDTVKGRFTISRDNPKNTLFLQMTSLRSEDTAMYYCARKRAYGDYSGFSMDYWGQGTSVTVSS
VL: DIVMTQSQKFMSTSVGDRVSVTCKASQNVDTNVAWYQQKPGQSPKALIYSASYRYSGVPDRFTGSGSGTDFTLTISNVQSEDLAEYFCQQYNKFPLTFGGGTKLEIK
notes: mouse IgG1/kappa; also called 45H6 (mouse)

% displacement of pre-bound ligand [5]: < 20%
% displacement of pre-bound ligand [6]: > 95%
% blocking of ligand binding [1]: > 95%
% blocking of ligand binding [3]: > 55%
EC50 [4]: 0.63 µg/mL
B3: chimeric mouse/human IgG4/kappa anti-human HVEM antibody no. 11H7 (antibody, V domains shown)
VH: QVQLKQSGPGLVQPSQSLSITCTVSGFSLTIYGVHWVRQSPGKGLEWLGVIWSGGSTDYNAAFISRLSISKDNSKSQVFFKMNSLQANDTAIYYCARRDYGSRSFYYAMDYWGQGTSVTVSS
VL: EIVLTQSPALMAASPGEKVTITCSVSSSISSSNLHWYQQKSETSPKPWIYGTSNLASGVPVRFSGSGSGTSYSLTISSMEAEDAATYYCQQWSSYPLTFGGGTKLEIKR
notes: 40/41 within the entry; Stabilized human IgG4 (S239P) already in the entry; also called chimeric 11H7

% blocking of ligand binding [1]: > 95%
binding result [2]: no binding
% blocking of ligand binding [3]: > 60%
EC50 [4]: 0.532 µg/mL
B4: mouse anti-human HVEM antibody no. 11H7 (antibody, mouse IgG1, V domains shown)
VH: B3 VH
VL: EIVLTQSPALMAASPGEKVTITCSVSSSISSSNLHWYQQKSETSPKPWIYGTSNLASGVPVRFSGSGSGTSYSLTISSMEAEDAATYYCQQWSSYPLTFGGGTKLEIK
notes: mouse IgG1/kappa; also called 11H7 (mouse)
